Reference: publication PMC7307210

Molecular target: SAR1A (human) (UniProt Q9NR31)
Test: liposome flotation assay; SAR1 and SEC31A-af incubated with 100-nm synthetic liposomes and GMP-PNP, 30 min at 37 °C, floated through a sucrose gradient in HKM buffer (pH 6.8); SDS-PAGE and SYPRO-Ruby staining; SEC31-af signal normalized to SAR1

fold recruitment relative to SAR1B: 2 fold
Substance: GTPase-activating fragment of SEC31A (from UniProt O94979 1-1220) (domain or fragment)
